From patent publication US20240317847A1 (Bayer, published 2024) come the findings set out here.

A word on the IC50: it is the concentration that inhibits the measured activity by half. In general, Kd refers to the free concentration of one partner at which half of the binding sites on the other are occupied at equilibrium, for simple one-to-one binding. A lower Kd goes with tighter binding. Usually EC50 stands for the midpoint of the concentration-response curve. A low value points to greater potency.

The target in assay [1] is T1, human IL-11 (human, UniProt P20809 22-199).
T1 construct: Invigate recombinant protein; biotinylated when immobilized in the Di-complex ELISA; also called hIL11; hIL-11
T1 sequence: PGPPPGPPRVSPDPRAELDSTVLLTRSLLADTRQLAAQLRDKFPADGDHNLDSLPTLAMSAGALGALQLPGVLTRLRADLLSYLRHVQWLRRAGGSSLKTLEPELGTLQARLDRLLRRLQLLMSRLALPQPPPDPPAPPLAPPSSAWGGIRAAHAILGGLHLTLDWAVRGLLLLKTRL
Nature of the assay: Di-complex ELISA, canine IL11RA-hFc binding to immobilized hIL-11, competition. On the procedure: (§1) In the Di-complex ELISA format anti IL-11 antibodies are tested for the ability to interfere with the formation of complexes consisting of immobilized murine IL-11 (Invigate, e.g., lot #C210819-09) or human IL-11 (Invigate, e.g., lot #C121021-19), and murine IL11RA-Fc fusion proteins or canine IL11RA-human-Fc fusion protein (FIG. 17a, b).
(§2) Bispecific antibodies were subjected to the experimental assay procedure described in Example 18 and IC50 [M], respectively efficacy (%) were calculated accordingly.
For orientation: In an ELISA, binding on a coated surface is turned into a signal by an enzyme label.

Assay [2] addresses T1, human IL-11. Nature of the assay: Tri-complex ELISA, hIL-11 + mIL-11Ra-Fc + hgp130-Fc, inhibition of complex formation. On the procedure:
(§3) In the Tri-complex ELISA format IL-11 antibodies are tested for their ability to inhibit the formation of a complex consisting of murine or human gp130-Fc fusion protein, with murine or human IL-11, and a murine IL11RA-Fc fusion protein. The assay format was adapted according to FIG. 18 (a, b), depending on whether murine or human IL-11 IgG antibodies were tested.
(§4) Bispecific antibodies were subjected to the experimental assay procedure described in Example 19 and IC50 [M], respectively efficacy (%) were calculated accordingly.

The target of assay [3] is T2, murine IL-11 (mouse, UniProt P47873 22-199).
T2 construct: Invigate recombinant protein; biotinylated when immobilized in the Di-complex ELISA; also called mIL11; mIL-11
T2 sequence: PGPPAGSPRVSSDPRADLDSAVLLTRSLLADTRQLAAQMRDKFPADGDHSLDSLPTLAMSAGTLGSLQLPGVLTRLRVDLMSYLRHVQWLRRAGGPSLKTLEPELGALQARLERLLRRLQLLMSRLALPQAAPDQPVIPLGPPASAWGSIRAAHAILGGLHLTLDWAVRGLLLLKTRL
Kind of assay: Di-complex ELISA, canine IL11RA-hFc binding to immobilized mIL-11, competition. The protocol:
as §1, §2

Assay [4] has as its target T1, human IL-11. Kind of assay: cell-based or functional assay.
Assay [5] addresses T2, murine IL-11. Nature of the assay: cell-based or functional assay.
Assay [6] deals with T2, murine IL-11. Nature of the assay: Tri-complex ELISA, mIL-11 + mIL-11Ra-Fc + mgp130-Fc, inhibition of complex formation. On the procedure: as §3, §4
The next assay deals with T3, human IL2Ra (human, UniProt P01589 22-240, limits assumed).
T3 construct: coated on the ELISA plate; also called IL-2 receptor alpha
T3 sequence (looked up): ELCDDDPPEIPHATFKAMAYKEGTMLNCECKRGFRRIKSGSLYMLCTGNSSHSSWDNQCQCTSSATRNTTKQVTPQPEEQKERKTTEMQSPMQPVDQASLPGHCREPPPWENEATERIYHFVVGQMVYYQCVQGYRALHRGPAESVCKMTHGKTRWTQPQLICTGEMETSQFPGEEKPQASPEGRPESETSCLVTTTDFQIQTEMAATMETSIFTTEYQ
Kind of assay: ELISA on coated IL2Ra, signal ratio to isotype control at 1E-07 M antibody. On the procedure: IL2RA (Peprotech, Germany, #200-02RC) was coated at 1 or 0 μg/ml (buffer only control) in 30 μl coating buffer (Candor, #113500) per well on a 384 well microtiter plate (Maxisorb, Nunc, #460518) over night at 4-8° C. After two washes with 50 μl/well washing buffer (PBS+0.05% Tween, pH 7.4), the plates were incubated for two hours at room temperature with 50 μl/well SmartBlock (Candor, #113500). After blocking, the plates were washed three times with washing buffer. Then, a dilution series of the respective antibody (1E-7 [M] down to 2E-13 [M]) in PBS+0.05% Tween, 10% SmartBlock were added in 30 μl to the microtiter plate and incubated for 90 min at room temperature. After three additional washes, 30 μl anti mouse IgG HRP-conjugated antibody (Biotechne, HAF007), diluted 1:1000 in PBS+0.05% Tween (pH 7.4), were added per well and incubated for one hour. After three additional washes, a mixture of Amplex red (Invitrogen, #12222, 10 mM stock solution in DMSO) 1:1000 diluted in PBS and H2O2 (30%, Merck, #107209)) diluted 1:10000 in PBS were added as substrate with 30 μl per well and incubated for 20 min in the dark. Relative fluorescence was measured with a microtiter plate reader at 535/590 nm.
Bispecific antibodies were subjected to the experimental assay procedure described in Example 20. Ratios of the signals generated at an antibody concentration of 1E-07 [M] by the respective bispecific antibody versus those of an isotype control antibody were calculated and are shown in Table E29. The bispecific antibodies show no binding to IL-2 Ra.

Another assay concerns the target T4, rat IL-11 (rat, UniProt Q99MF5 22-199).
T4 construct: Invigate recombinant protein; also called rIL11
T4 sequence: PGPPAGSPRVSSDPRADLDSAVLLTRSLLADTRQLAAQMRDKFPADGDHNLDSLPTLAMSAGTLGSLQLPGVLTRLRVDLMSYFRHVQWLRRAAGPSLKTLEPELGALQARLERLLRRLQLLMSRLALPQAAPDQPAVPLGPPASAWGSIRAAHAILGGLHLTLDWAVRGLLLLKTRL
Nature of the assay: SPR (Biacore), 25 C, antibody captured via anti-Fc, IL-11 as analyte. The protocol:
(§5) To assess the binding kinetics and affinity of anti-IL-11 bispecific antibodies as well as their species cross-reactivity profile, binding assays were conducted using surface plasmon resonance (SPR). […] Antibodies were captured either via anti-human Fc IgGs (“Human antibody capture kit”, Order No. BR100839, Cytiva) or via anti-mouse Fc IgGs (“Mouse antibody capture kit, Order No. BR100383, Cytiva) covalently amine coupled to a Series S CM5 sensor chip (Cytiva) depending on the isotype. The amine coupling was carried out according to the manufacturer's instructions using 1-ethyl-3-(3-dimethylaminopropyl) carbodiimide hydrochloride (EDC), N-hydroxysuccinimide (NHS) and ethanolamine HCl, pH 8.5 (“Amine Coupling Kit” BR-1000-50, Cytiva.). Human, mouse, cynomolgus or rat IL-11 was used as analyte at several dilutions within the concentration range from 0.05-200 nM. For binding assays with only one concentration 200 nM IL-11 was used. The sensor surface was regenerated with glycine pH 1.7 after each antigen injection. Obtained sensorgrams were double referenced (subtraction of reference flow cell signal and buffer injection) and were fitted to a 1:1 Langmuir binding model to derive kinetic data using the Biacore T200 Evaluation software or the Biacore Insight software.
(§6) If no value is reported, there was either no binding or very low binding and multiphasic binding behavior.
(In general: In SPR one partner is held on a chip, and binding of the other changes the refractive index at the surface.)

The target in assay [7] is T1, human IL-11. The assay is described as above. On the procedure:
as §5, §6

Assay [8] addresses T2, murine IL-11. The description is as above. On the procedure: as §5, §6
The next assay addresses T5, cynomolgus IL-11 (cynomolgus, UniProt P20808 22-199).
T5 construct: Invigate recombinant protein; also called cIL11; Macaca IL-11
T5 sequence: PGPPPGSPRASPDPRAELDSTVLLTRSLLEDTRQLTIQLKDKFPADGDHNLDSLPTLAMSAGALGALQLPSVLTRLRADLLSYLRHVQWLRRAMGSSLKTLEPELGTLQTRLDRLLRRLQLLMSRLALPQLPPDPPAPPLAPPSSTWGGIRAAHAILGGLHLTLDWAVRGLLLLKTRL
The description is as above. On the procedure: as §5, §6

Assay [9] concerns the target T6, human IL-11 (Invigate, e.g., lot #C121021-19) (human, UniProt P20809 22-199).
T6 construct: Bought protein; also called hIL-11; hIL11
T6 sequence: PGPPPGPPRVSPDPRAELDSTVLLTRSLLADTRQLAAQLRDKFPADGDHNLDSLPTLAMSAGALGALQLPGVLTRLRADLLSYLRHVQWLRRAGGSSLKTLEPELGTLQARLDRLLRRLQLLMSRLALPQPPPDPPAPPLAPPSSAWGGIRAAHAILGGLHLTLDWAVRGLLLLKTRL
Nature of the assay: ELISA, receptor-Fc titrated on biotinylated IL-11 captured on streptavidin plate; species of IL-11 not said.

Assay [10] concerns the target T7, murine IL-11 (Invigate, e.g., lot #C210819-09) (mouse, UniProt P47873 22-199).
T7 construct: Bought protein; biotinylated where captured on streptavidin plates; also called mIL-11; mIL11
T7 sequence: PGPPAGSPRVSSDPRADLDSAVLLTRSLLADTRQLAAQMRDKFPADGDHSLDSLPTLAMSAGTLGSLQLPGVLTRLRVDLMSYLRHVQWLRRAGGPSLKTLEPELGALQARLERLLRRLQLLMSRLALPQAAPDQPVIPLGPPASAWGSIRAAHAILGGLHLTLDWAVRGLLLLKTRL
The description is as above.

B1: TPP-26195 (bispecific antibody, IgG1)
chain 1: EVQLLESGGGLVQPGGSLRLSCAASGFTFSSYGMHWVRQAPGKGLEWVSVISYDGSYKYYADSVKGRFTISRDNSKNTLYLQMNSLRAEDTAVYYCAAGVPDYWGQGTLVTVSSGGGGSGGGGSGGGGSQSVLTQPPSASGTPGQRVTISCTGSSSNIGAGYDVHWYQQLPGTAPKLLIYSNNERPSGVPDRFSGSKSGTSASLAISGLRSEDEADYYCAAWDDSLNGPVFGGGTKLTVLGGGGSGGGGSGGGGSGVECPPCPAPPVAGPSVFIFPPKPKDVLTITLTPKVTCVVVDISKDDPEVQFSWFVDDVEVHTAQTQPREEQFNSTFRSVSELPIMHQDWLNGKEFKCRVNSAAFPAPIEKTISKTKGRPKAPQVYTIPPPKEQMAKDKVSLWCMITDFFPEDITVEWQWNGQPAENYKNTQPIMDTDGSYFVYSKLNVQKSNWEAGNTFTCSVLHEGLHNHHTEKSLSHSPGK
chain 2: EVQLLESGGGLVQPGGSLRLSCAASGFTFSHYDMNWLRQAPGKGLEWVGVISYDGSNKFYADFVKGRFTISRDNSKNTLYLQMNSLRAEDTAVYYCARTPGSHFDYWGQGTLVTVSSGGGGSGGGGSGGGGSQSVLTQPPSASGTPGQRVTISCSGSSSNIGNNAVNWYQQLPGTAPKLLIYYDDLLPSGVPDRFSGSKSGTSASLAISGLRSEDEADYYCSAWDDSLNGVVFGGGTKLTVLGGGGSGGGGSGGGGSGVECPPCPAPPVAGPSVFIFPPKPKDVLTITLTPKVTCVVVDISKDDPEVQFSWFVDDVEVHTAQTQPREEQFNSTFRSVSELPIMHQDWLNGKEFKCRVNSAAFPAPIEKTISKTKGRPKAPQVYTIPPPKEQMAKDKVSLSCAITDFFPEDITVEWQWNGQPAENYKNTQPIMDTDGSYFVVSKLNVQKSNWEAGNTFTCSVLHEGLHNHHTEKSLSHSPGK
notes: scFv-kih-mIgG1
For B1, the IC50 turned out to be 6.3 nM in the assay with human IL-11 [1], 1.28 nM with human IL-11 [2], 4.1 nM with murine IL-11 [3] and 0.258 nM in the assay with murine IL-11 [6]. For the same molecule, the “Efficacy (%)” value with human IL-11 [2] and with murine IL-11 [6] was 98% throughout. Also, the “Efficacy (%), Stat3 reporter gene assay” value in the assay with human IL-11 [4] amounted to 88.5%; with murine IL-11 [5], 96.9%. Besides, the “IC50, Stat3 reporter gene assay” value with human IL-11 [4] was found to be 0.65 nM; in the assay with murine IL-11 [5], 1.8 nM. The “Ratio IL-2Ra Binding Signal Antibody/Isotype Control” value with human IL2Ra is 146 ratio. Further, the dissociation constant Kd with rat IL-11 was determined as 0.045 nM; in the assay with human IL-11 [7], 0.083 nM; with murine IL-11 [8], 0.046 nM; in the assay with cynomolgus IL-11, 0.074 nM.

B2: canine IL11RA-human-Fc fusion protein (Sino Biological, #70078-D02H) (Fc fusion)
chain: SPCPQAWGPPGVQYGQPGRSMTLCCPGVTAGAPVSWFRDGETRLLQGPDSGLGHELVLAQADSTDEGTYICRTLDGALGGIVTLQLGYPPARPVVSCQAADYENFSCTWSPSQVSGLPTRYLTSYRKKTVPGADGQRMSPSTGPWPCPQDPPGAARCVVHGAEFWSQYRINVTEVNPLGTSTRLLDVSLQSILRPDPPQGLRVESVPGYPRRLRASWTYPASWPRQPHFLLRFRLQYRPAQHPAWSTVEPAGLEEVITDAVAGLPHAVRVSARDFLDAGTWSAWSPEAWGTPSTGSLPKEIPAGGQPRKQLEEEPQADSPTPPRPSLLPDPRPLDQRDPLEQIAVLA
notes: Used in the Di-complex ELISA when murine IgGs were tested; also called canine IL11RA-Fc; Canine IL-11Ra fused to human Fc; not shown: human Fc (and any linker) of the bought fusion protein, Sino Biological #70078-D02H
B2: the 50% effective concentration (EC50) in assay [9] and in [10] was ~2 nM throughout.
